Data set [1] relates to HeLa Kyoto. In words: solubility in G1/S (NP-40 vs SDS abundance) (log2 ratio); higher = more soluble. The note with it: cell cycle stage: G1/S.
For data set [2], the system named is HeLa Kyoto. Put plainly: thermal stability score vs G1/S (z-score of summed log2 fold changes over temperatures); higher = more thermally stable than in G1/S.
Data set [3] concerns HeLa Kyoto. In words: solubility change mitosis vs G1/S (difference of NP-40 vs SDS log2 ratios) (log2 ratio difference); higher = more soluble in mitosis.
Data set [4] concerns HeLa Kyoto. In words: melting temperature (median over replicates), in situ; higher = more thermally stable.
Where [5] appears, read: cell cycle stage: early G1 (4.5 h after nocodazole release).
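Wherever melting temperature (median over replicates), in situ is given: HeLa Kyoto cells synchronized by double thymidine or nocodazole block, proteins quantified by TMT10plex mass spectrometry, three independent biological replicates.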
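Wherever solubility change mitosis vs G1/S (difference of NP-40 vs SDS log2 ratios) is given: synchronized HeLa Kyoto cells (double thymidine block for G1/S, nocodazole release for mitosis), protein amounts in NP-40 versus SDS lysates quantified by mass spectrometry, three biological replicates.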
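Wherever solubility in G1/S (NP-40 vs SDS abundance) is given: HeLa Kyoto cells arrested at G1/S by double thymidine block, proteins quantified by TMT10plex mass spectrometry in mild NP-40 versus SDS extracts, three biological replicates.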
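Wherever thermal stability score vs G1/S (z-score of summed log2 fold changes over temperatures) is given: synchronized HeLa Kyoto cells, proteins quantified by TMT10plex mass spectrometry, three biological replicates, mitosis taken 0.5 h after nocodazole release, G1/S directly after double thymidine block.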

Chain of CHAC2 (chain, as listed by the source): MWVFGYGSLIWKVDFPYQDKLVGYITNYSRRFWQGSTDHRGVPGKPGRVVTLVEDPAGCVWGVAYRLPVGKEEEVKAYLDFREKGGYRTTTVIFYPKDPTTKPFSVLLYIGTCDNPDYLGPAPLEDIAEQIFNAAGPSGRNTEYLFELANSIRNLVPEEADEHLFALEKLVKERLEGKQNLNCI
Chain of CBX1 (chain, as listed by the source): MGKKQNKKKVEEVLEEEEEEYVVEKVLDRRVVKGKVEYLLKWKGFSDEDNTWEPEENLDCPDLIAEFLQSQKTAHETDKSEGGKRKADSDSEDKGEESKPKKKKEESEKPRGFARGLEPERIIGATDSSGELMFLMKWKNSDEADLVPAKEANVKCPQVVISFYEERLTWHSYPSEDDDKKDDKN

“MALSAQQIPRWFNSVKLRSLINAAQLTKRFTRPARTLLHGFSAQPQISSDNCFLQWGFKTYRTSSLWNSSQSTSSSSQENNSAQSSLLPSMNEQSQKTQNISSFDSELFLEELDELPPLSPMQPISEEEAIQIIADPPLPPASFTLRDYVDHSETLQKLVLLGVDLSKIEKHPEAANLLLRLDFEKDIKQMLLFLKDVGIEDNQLGAFLTKNHAIFSEDLENLKTRVAYLHSKNFSKADVAQMVRKAPFLLNFSVERLDNRLGFFQKELELSVKKTRDLVVRLPRLLTGSLEPVKENMKVYRLELGFKHNEIQHMITRIPKMLTANKMKLTETFDFVHNVMSIPHHIIVKFPQVFNTRLFKVKERHLFLTYLGRAQYDPAKPNYISLDKLVSIPDEIFCEEIAKASVQDFEKFLKTL [MTERF3]”: the “solubility in G1/S (log2)” value with HeLa Kyoto [1] stood at 0.238. The thermal stability score was -0.741 in the data set on HeLa Kyoto [2] (setting [5]) and 0.517 in the data set with HeLa Kyoto [2] (cell cycle stage: mitosis). The “solubility change mitosis (log2)” value in the data set on HeLa Kyoto [3] was -0.167. In addition, the melting temperature in the data set on HeLa Kyoto [4] (cell cycle stage: G1/S) was found to be 49.7 °C; in the data set on HeLa Kyoto [4] (cell cycle stage: mitosis), 50.3 °C.

For the substance CBX1, the “solubility in G1/S (log2)” value in the data set with HeLa Kyoto [1] is -0.629. The thermal stability score in the data set with HeLa Kyoto [2] (setting [5]) is 2.04; in the data set with HeLa Kyoto [2] (cell cycle stage: mitosis), 1.13. For the same substance, the “solubility change mitosis (log2)” value in the data set on HeLa Kyoto [3] is 0.55. The melting temperature with HeLa Kyoto [4] (cell cycle stage: G1/S) stood at 51.2 °C; with HeLa Kyoto [4] (cell cycle stage: mitosis) it was 52.8 °C.

As for CHAC2, the “solubility in G1/S (log2)” value with HeLa Kyoto [1] amounted to 0.541. The thermal stability score with HeLa Kyoto [2] (setting [5]) is 0.759; in the data set with HeLa Kyoto [2] (cell cycle stage: mitosis), 0.354. Besides, the “solubility change mitosis (log2)” value in the data set with HeLa Kyoto [3] was -0.0779. The melting temperature in the data set with HeLa Kyoto [4] (cell cycle stage: G1/S) came to 53 °C; in the data set on HeLa Kyoto [4] (cell cycle stage: mitosis), 51.9 °C.

With “MKKFFDSRREQGGSGLGSGSSGGGGSTSGLGSGYIGRVFGIGRQQVTVDEVLAEGGFAIVFLVRTSNGMKCALKRMFVNNEHDLQVCKREIQIMRDLSGHKNIVGYIDSSINNVSSGDVWEVLILMDFCRGGQVVNLMNQRLQTGFTENEVLQIFCDTCEAVARLHQCKTPIIHRDLKVENILLHDRGHYVLCDFGSATNKFQNPQTEGVNAVEDEIKKYTTLSYRAPEMVNLYSGKIITTKADIWALGCLLYKLCYFTLPFGESQVAICDGNFTIPDNSRYSQDMHCLIRYMLEPDPDKRPDIYQVSYFSFKLLKKECPIPNVQNSPIPAKLPEPVKASEAAAKKTQPKARLTDPIPTTETSIAPRQRPKAGQTQPNPGILPIQPALTPRKRATVQPPPQAAGSSNQPGLLASVPQPKPQAPPSQPLPQTQAKQPQAPPTPQQTPSTQAQGLPAQAQATPQHQQQLFLKQQQQQQQPPPAQQQPAGTFYQQQQAQTQQFQAVHPATQKPAIAQFPVVSQGGSQQQLMQNFYQQQQQQQQQQQQQQLATALHQQQLMTQQAALQQKPTMAAGQQPQPQPAAAPQPAPAQEPAIQAPVRQQPKVQTTPPPAVQGQKVGSLTPPSSPKTQRAGHRRILSDVTHSAVFGVPASKSTQLLQAAAAEASLNKSKSATTTPSGSPRTSQQNVYNPSEGSTWNPFDDDNFSKLTAEELLNKDFAKLGEGKHPEKLGGSAESLIPGFQSTQGDAFATTSFSAGTAEKRKGGQTVDSGLPLLSVSDPFIPLQVPDAPEKLIEGLKSPDTSLLLPDLLPMTDPFGSTSDAVIEKADVAVESLIPGLEPPVPQRLPSQTESVTSNRTDSLTGEDSLLDCSLLSNPTTDLLEEFAPTAISAPVHKAAEDSNLISGFDVPEGSDKVAEDEFDPIPVLITKNPQGGHSRNSSGSSESSLPNLARSLLLVDQLIDL [AAK1]”, the “solubility in G1/S (log2)” value in the data set with HeLa Kyoto [1] turned out to be 0.192. Further, the thermal stability score with HeLa Kyoto [2] (setting [5]) stood at 0.691; in the data set on HeLa Kyoto [2] (cell cycle stage: mitosis), 0.746. For the same substance, in the data set on HeLa Kyoto [3], the “solubility change mitosis (log2)” value is -0.0894. Also, the values for the melting temperature in the data set on HeLa Kyoto [4] (cell cycle stage: G1/S) and in the data set with HeLa Kyoto [4] (cell cycle stage: mitosis) were 50.9 °C and 51.8 °C, respectively.

In the case of USP9X, the “solubility in G1/S (log2)” value in the data set on HeLa Kyoto [1] is -0.226. Further, the values for the thermal stability score in the data set on HeLa Kyoto [2] (setting [5]) and in the data set with HeLa Kyoto [2] (cell cycle stage: mitosis) were -0.0892 and 0.618, respectively. Besides, in the data set on HeLa Kyoto [3], the “solubility change mitosis (log2)” value was -0.134. In addition, the melting temperature in the data set on HeLa Kyoto [4] (cell cycle stage: G1/S) was found to be 50.4 °C; in the data set on HeLa Kyoto [4] (cell cycle stage: mitosis) it was 50.6 °C.

Source of the values: the supplement of paper PMC5998384.
